Test results as given in paper PMC12105186 (Cell Communication and Signaling : CCS, 2025).
“And” between values parts separate entries of the source, which are not always exact repeats. Equal values may be shown once. One block for each molecule: values may come before it.

How the values were obtained:
[1] = biological target: N-terminally 6×His-tagged AB region of hRXRγ (human); assay: MST
AUC = biological target: the molecule itself; assay: AUC
SEC-MALS = biological target: the molecule itself; assay: SEC-MALS

Kd [1]: 11.1 µM
Molecule: deletion mutant of human RXRγ lacking the AB region (ΔABhRXRγ) (from UniProt P48443 128-463) (domain or fragment)

B1: deletion mutant of human RXRγ lacking the AB region (ΔABhRXRγ) (domain or fragment, UniProt P48443 128-463, looked up)
chain: STSPGSLVKHICAICGDRSSGKHYGVYSCEGCKGFFKRTIRKDLIYTCRDNKDCLIDKRQRNRCQYCRYQKCLVMGMKREAVQEERQRSRERAESEAECATSGHEDMPVERILEAELAVEPKTESYGDMNMENSTNDPVTNICHAADKQLFTLVEWAKRIPHFSDLTLEDQVILLRAGWNELLIASFSHRSVSVQDGILLATGLHVHRSSAHSAGVGSIFDRVLTELVSKMKDMQMDKSELGCLRAIVLFNPDAKGLSNPSEVETLREKVYATLEAYTKQKYPEQPGRFAKLLLRLPALRSIGLKCLEHLFFFKLIGDTPIDTFLMEMLETPLQIT
stoichiometry N (AUC): 2 and 6 | stoichiometry N (SEC-MALS): 4

B2: full-length human retinoid X receptor γ (hRXRγ) (receptor, UniProt P48443 1-463, looked up)
chain: MYGNYSHFMKFPAGYGGSPGHTGSTSMSPSAALSTGKPMDSHPSYTDTPVSAPRTLSAVGTPLNALGSPYRVITSAMGPPSGALAAPPGINLVAPPSSQLNVVNSVSSSEDIKPLPGLPGIGNMNYPSTSPGSLVKHICAICGDRSSGKHYGVYSCEGCKGFFKRTIRKDLIYTCRDNKDCLIDKRQRNRCQYCRYQKCLVMGMKREAVQEERQRSRERAESEAECATSGHEDMPVERILEAELAVEPKTESYGDMNMENSTNDPVTNICHAADKQLFTLVEWAKRIPHFSDLTLEDQVILLRAGWNELLIASFSHRSVSVQDGILLATGLHVHRSSAHSAGVGSIFDRVLTELVSKMKDMQMDKSELGCLRAIVLFNPDAKGLSNPSEVETLREKVYATLEAYTKQKYPEQPGRFAKLLLRLPALRSIGLKCLEHLFFFKLIGDTPIDTFLMEMLETPLQIT
stoichiometry N (AUC): 5
